This assay concerns the target T1, human FOLR1 protein, His Tag (ACRO FO1-H52H1) (human, UniProt P15328 25-233).
T1 construct: Bought protein coated on ELISA plates; not shown: His tag
As to the kind of experiment: ELISA, coated hFOLR1-His, supernatant 1x. In general terms: ELISA stands for enzyme-linked immunosorbent assay.

T1 sequence (P15328 25-233 limits assumed): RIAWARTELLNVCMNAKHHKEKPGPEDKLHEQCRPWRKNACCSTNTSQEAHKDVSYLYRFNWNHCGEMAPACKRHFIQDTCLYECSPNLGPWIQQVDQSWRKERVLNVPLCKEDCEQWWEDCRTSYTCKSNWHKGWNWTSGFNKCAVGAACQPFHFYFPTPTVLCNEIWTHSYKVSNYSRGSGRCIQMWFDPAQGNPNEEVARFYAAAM

B1: F131 (antibody, V domains shown)
VH: EVQLLESGGGVVQPGRSLRLSCAASGFTFSSYGMHWVRQAPGKGLEWVAVISYDGSNKYYADSVKGRFTISRANSKNTLYLQMNSLRAEDTAVYYCARPRAYYGAYGSSFDYWGQGTQVTVSS
VL: EIVMTQSPSSVSASVGDRVAITCRASQGISSWLAWYQQKPGKAPKLLIYAASSLQSGVPSRFSGSGSGTDFTLTISSLQPEDFATYYCQQSYSTPLTFGGGTKVDIK
notes: also called clone F131; F131 mAb
The molecule B1 gave an OD450 of 1.61 OD450.

The record behind these values is patent publication US20240245796A1 (PROFOUNDBIO US, published 2024).
